# In patent US20260056186A1 (JIANGSU HENGRUI PHARMACEUTICALS, published 2026):
# Read-outs that look alike come from different tables or passages of the source.
# T1: APRIL (Acro Biosystems, Cat: APL-H52D1) (UniProt O75888 115-250, limits assumed)
# T1 construct: also called ARPIL
# T1 sequence (looked up): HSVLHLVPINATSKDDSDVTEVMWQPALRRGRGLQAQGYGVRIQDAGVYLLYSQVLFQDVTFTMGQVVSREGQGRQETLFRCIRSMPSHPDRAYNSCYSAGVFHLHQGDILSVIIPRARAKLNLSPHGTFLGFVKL
# B1: B613301 (other)
# heavy: EVQLVQSGAEVKKPGESLKISCKGSGYIFTNYWIAWVRQMPGKGLESMGIIYPGDSDIRYSPSFQGQVTISADKSITTAYLQWSSLKASDTAMYYCARHDIEGFDYWGRGTLVTVSSASTKGPSVFPLAPSSKSTSGGTAALGCLVKDYFPEPVTVSWNSGALTSGVHTFPAVLQSSGLYSLSSVVTVPSSSLGTQTYICNVNHKPSNTKVDKRVEPKSCDKTHTCPPCPAPEFEGGPSVFLFPPKPKDTLMISRTPEVTCVVVDVSHEDPEVKFNWYVDGVEVHNAKTKPREEQYNSTYRVVSVLTVLHQDWLNGKEYKCKVSNKALPASIEKTISKAKGQPREPQVYTLPPSRDELTKNQVSLTCLVKGFYPSDIAVEWESNGQPENNYKTTPPVLDSDGSFFLYSKLTVDKSRWQQGNVFSCSVMHEALHNHYTQKSLSLSPGK
# light: EIVLTQSPGTLSLSPGERATLSCRASQSVSSSFFAWYQQKPGQAPRLLIYGASSRATGIPDRLSGSGSGTDFTLTITRLEPEDFAVYYCQQYDSSAITFGQGTRLEIKRTVAAPSVFIFPPSDEQLKSGTASVVCLLNNFYPREAKVQWKVDNALQSGNSQESVTEQDSKDSTYSLSSTLTLSKADYEKHKVYACEVTHQGLSSPVTKSFNRGECGGGGSGGGGSLSCRKEQGKFYDHLLRDCISCASICGQHPKQCAYFCENKLRSPGMLQMAGQCSQNEYFDSLLHACIPCQLRCSSNTPPLTCQRYCNASVTNSVKGTNA
# notes: Fusion protein of anifrolumab and TACI-BCMA
# B2: B613302 (other)
# heavy: B1 heavy
# light: EIVLTQSPGTLSLSPGERATLSCRASQSVSSSFFAWYQQKPGQAPRLLIYGASSRATGIPDRLSGSGSGTDFTLTITRLEPEDFAVYYCQQYDSSAITFGQGTRLEIKRTVAAPSVFIFPPSDEQLKSGTASVVCLLNNFYPREAKVQWKVDNALQSGNSQESVTEQDSKDSTYSLSSTLTLSKADYEKHKVYACEVTHQGLSSPVTKSFNRGECGGGGSGGGGSMLQMAGQCSQNEYFDSLLHACIPCQLRCSSNTPPLTCQRYCNASVTNSVKGTNALSCRKEQGKFYDHLLRDCISCASICGQHPKQCAYFCENKLRSPG
# notes: as for B1
# B3: B575702 (Fc fusion)
# chain: MLQMAGQCSQNEYFDSLLHACIPCQLRCSSNTPPLTCQRYCNASVTNSVKGTNALSCRKEQGKFYDHLLRDCISCASICGQHPKQCAYFCENKLRSPGDKTHTCPPCPAPEAEGAPSVFLFPPKPKDTLMISRTPEVTCVVVDVSHEDPEVKFNWYVDGVEVHNAKTKPREEQYNSTYRVVSVLTVLHQDWLNGKEYKCKVSNKALPSSIEKTISKAKGQPREPQVYTLPPSRDELTKNQVSLTCLVKGFYPSDIAVEWESNGQPENNYKTTPPVLDSDGSFFLYSKLTVDKSRWQQGNVFSCSVMHEALHNHYTQKSLSLSPGK
# notes: TACI-BCMA fusion protein; also called BCMA-ECD-TACI-d2-Fc
# B4: B575703 (Fc fusion)
# chain: SRVDQEERFPQGLWTGVAMRSCPEEQYWDPLLGTCMSCKTICNHQSQRTCAAFCRSLSCRKEQGKFYDHLLRDCISCASICGQHPKQCAYFCENKLRSPVNLPPELMLQMAGQCSQNEYFDSLLHACIPCQLRCSSNTPPLTCQRYCNASVTNSVKGTNADKTHTCPPCPAPEAEGAPSVFLFPPKPKDTLMISRTPEVTCVVVDVSHEDPEVKFNWYVDGVEVHNAKTKPREEQYNSTYRVVSVLTVLHQDWLNGKEYKCKVSNKALPSSIEKTISKAKGQPREPQVYTLPPSRDELTKNQVSLTCLVKGFYPSDIAVEWESNGQPENNYKTTPPVLDSDGSFFLYSKLTVDKSRWQQGNVFSCSVMHEALHNHYTQKSLSLSPGK
# notes: TACI-BCMA fusion protein; also called TACI-T2-BCMA-ECD-Fc
# Legend:
# [1] = target: T1, APRIL (Acro Biosystems, Cat: APL-H52D1); assay: ELISA, APRIL coated at 1 ug/mL, anti-human Fc-HRP, OD450
# Experimental: (§1) The capabilities of B613301, B613302, and B613303, which are fusion proteins of anifrolumab and TACI-BCMA, to bind to BAFF and APRIL were assessed by ELISA as follows: [0548] BAFF (PeproTech, Cat: 310-13) or ARPIL (Acro Biosystems, Cat: APL-H52D1) was diluted to 1 μg/mL with PBS, and a 96-well plate (Costar, Cat: 3590) was coated with the dilution overnight at 4° C. The plate was washed with PBST and blocked with Blocking Buffer (PBST containing 1% BSA) at 37° C. for 1 h. The plate was tapped. The test antibodies were diluted with Blocking Buffer. Incubation was performed at 37° C. for 1.5 h. The plate was washed with PBST. An HRP-mouse anti-human Fc antibody (GenScript, Cat: A01854-200) was diluted with Blocking Buffer. Incubation was performed at 37° C. for 40 min. The plate was washed with PBST. 100 μL of TMB substrate solution (Biopanda, Cat: TMB-S-003) was added, and color development was performed at 37° C. for 3 min. 100 μL of ELISA stop solution (Solarbio, Cat: C1058) was added. OD450 was measured.
# [2] = target: T1, APRIL (Acro Biosystems, Cat: APL-H52D1); assay: ELISA, APRIL coated; reference telitacicept; range told of the 3 fusion proteins, upper end tied to B613301 by Table 8
# Experimental: as §1
# [3] = target: T1, APRIL (Acro Biosystems, Cat: APL-H52D1); assay: ELISA, APRIL coated; reference telitacicept; range told of the 3 fusion proteins, lower end tied to B613302 by Table 8
# Experimental: as §1
# [4] = target: T1, APRIL (Acro Biosystems, Cat: APL-H52D1); assay: ELISA, APRIL coated; reference telitacicept; range told of the 4 fusion proteins, lower end tied to B575702 by Table 5
# Experimental: as §1, with “TACI-BCMA” for “B613301, B613302, and B613303, which are”, “(B575701, B575702, B575703,” for “of anifrolumab”, “B575704)” for “TACI-BCMA,”, “follows:” for “follows: [0548]”
# (§2) The capabilities of the 4 fusion proteins to bind to APRIL were all stronger than that of telitacicept, and their EC₅₀ values decreased to ¼ to ⅓ of that of telitacicept.
# [5] = target: T1, APRIL (Acro Biosystems, Cat: APL-H52D1); assay: ELISA, APRIL coated at 1 ug/mL, anti-human Fc-HRP, OD450; remark: listed apart in the source
# Experimental: as §1, with “TACI-BCMA” for “B613301, B613302, and B613303, which are”, “(B575701, B575702, B575703,” for “of anifrolumab”, “B575704)” for “TACI-BCMA,”, “follows:” for “follows: [0548]”
# as §2
# [6] = target: T2, BAFF (PeproTech, Cat: 310-13) (UniProt Q9Y275 134-285); assay: ELISA, BAFF coated at 1 ug/mL, anti-human Fc-HRP, OD450
# T2 sequence (Q9Y275 134-285 limits assumed): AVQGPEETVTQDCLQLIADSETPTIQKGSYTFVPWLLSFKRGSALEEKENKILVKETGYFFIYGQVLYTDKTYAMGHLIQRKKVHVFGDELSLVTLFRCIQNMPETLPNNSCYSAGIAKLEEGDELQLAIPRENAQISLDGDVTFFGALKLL
# Experimental: as §1, with “TACI-BCMA” for “B613301, B613302, and B613303, which are”, “(B575701, B575702, B575703,” for “of anifrolumab”, “B575704)” for “TACI-BCMA,”, “follows:” for “follows: [0548]”
# (§3) The capability of B575702 to bind to BAFF was consistent with that of B575704, and their EC₅₀ values decreased to ¼ of that of telitacicept. The capability of B575701 to bind to BAFF was consistent with that of B575703, and their EC₅₀ values decreased to ½ of that of telitacicept.
# [7] = target: T2, BAFF (PeproTech, Cat: 310-13); assay: ELISA, BAFF coated; reference telitacicept
# Experimental: as §1, with “TACI-BCMA” for “B613301, B613302, and B613303, which are”, “(B575701, B575702, B575703,” for “of anifrolumab”, “B575704)” for “TACI-BCMA,”, “follows:” for “follows: [0548]”
# as §3
# [8] = target: T1, APRIL (Acro Biosystems, Cat: APL-H52D1); assay: ELISA, APRIL coated; reference telitacicept; range told of the 4 fusion proteins, upper end tied to B575703 by Table 5
# Experimental: as §1, with “TACI-BCMA” for “B613301, B613302, and B613303, which are”, “(B575701, B575702, B575703,” for “of anifrolumab”, “B575704)” for “TACI-BCMA,”, “follows:” for “follows: [0548]”
# as §2
Binder,EC50 [1],Emax [1],EC50 relative to telitacicept [2],EC50 relative to telitacicept [3],EC50 relative to telitacicept [4],EC50 [5],Emax [5],EC50 [6],Emax [6],EC50 relative to telitacicept [7],EC50 relative to telitacicept [8]
B1,0.201 nM,2.49,0.167 fold,–,–,–,–,–,–,–,–
B2,0.124 nM,2.52,–,0.1 fold,–,–,–,–,–,–,–
B3,–,–,–,–,0.25 fold,0.171 nM,2.64,0.166 nM,2.24 nM (as printed),0.25 fold,–
B4,–,–,–,–,–,0.264 nM,2.78,0.352 nM,2.43 nM (as printed),0.5 fold,0.333 fold
